Results on 28 sequences are retold here after the supplement of paper PMC9170038.

The data set deals with MS2 coat protein. As to the kind of experiment: apparent KD of MS2 coat protein; designed switch direction (-1 OFF switch, 1 ON switch): 1; higher = weaker reporter binding. In short, it runs like this: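 The apparent KD reported per design is the median over clusters of curve fits to normalised cluster fluorescence. The RNA switches were transcribed on Illumina chips by stalled E. coli RNA polymerase. SNAP-549-labelled MS2 coat protein was titrated from 0.7 or 1.5 nM, doubling up to 3 µM, in Tris-HCl pH 7.5 buffer containing KCl, MgCl2, BSA, DTT, tRNA and Tween-20, with no input, 200 uM small-molecule ligand, or an oligonucleotide input.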

The mark [1] stands for this setting: input ligand: microRNA oligo, concentration not stated.
The mark [2] stands for this setting: Eterna round: R95, input ligand: FMN 200 uM.
Where [3] appears, read: Eterna round: R95, input ligand: microRNA oligo, concentration not stated.
[4] abbreviates: Eterna round: R95, input ligand: none.

In the case of “AGUAGUGUAACAUGAGGAUCACCCAUGUAAGUAGAUGUAACCUAGGAUAUGGAUGAUAUGUUAGUCCAGAAGGAGGAUUGUUUA [JR_SSNG3_Sub038] (Eterna round: R96, puzzle: Same State NG 3)”, the “apparent KD of MS2 coat protein” value reads like this: (input ligand: FMN 200 uM) 20.6 nM; under setting [1], 36.7 nM; (input ligand: none) 34.8 nM.
In the case of “GGUAGGUUACUACCAGACAUGAGGAUCACCCAUGUAAAUGGGAAGGAUAUGGUACCGUUUCGGUACCAGAAGGUCCUAAAUGAG [JL SSNG3 1.47] (Eterna round: R96, puzzle: Same State NG 3)”, the “apparent KD of MS2 coat protein” value (input ligand: FMN 200 uM) came out at 301 nM, the “apparent KD of MS2 coat protein” value under setting [1] was 644 nM and the “apparent KD of MS2 coat protein” value (input ligand: none) is 1750 nM.
As to “AGGCUCGUGCUAGGAUAUCUAGGAUAUGGACGAGGAUUACCCGAGCAGCAUUAGCGCACCAGAGGAGAGAAGGAGCGACAUGCG [pwkr ssNG2 2F5 2FMN.11] (Eterna round: R96, puzzle: Same State NG 2)”, the “apparent KD of MS2 coat protein” value stood at 5.78 nM (input ligand: FMN 200 uM), 4.91 nM under setting [1] and 16 nM (input ligand: none).
In the case of “UUGUUUAACGUAGGAUAUCGACCUACAUGAGGAUCACCCAUGUCUUUGUAUAGUUUUUUUUGUUACGAGAAGGACGUUUUGUAU [JR_SSNG2_Sub068] (Eterna round: R96, puzzle: Same State NG 2)”, the “apparent KD of MS2 coat protein” value runs as follows: (input ligand: FMN 200 uM) 68.6 nM; under setting [1], 140 nM; (input ligand: none) 170 nM.
For “UGGCUCAGAGCAGGAUAUAUGUGAUCACAUGAGGAUCACCCAUGUCUCGAGCUUCGGCUCGAGACAUAGAAGGGCUCUGAGCCU [SSNG2/3-B3] (Eterna round: R96, puzzle: Same State NG 2)” the same measures were 110 nM, 52.7 nM and 137 nM.
For the sequence “GCCAUCGAGUGAGGAUAUGGCACCGAAACGGUGCCAGAAGGCAUGUCAAAAGACAUGAGGAUCACCCAUGUAUUAUCGAUGGCA [Mat - Same State NG 1 - JL mod - D88] (Eterna round: R96, puzzle: Same State NG 1)”, the “apparent KD of MS2 coat protein” value by setting is: (input ligand: FMN 200 uM) 28.5 nM; under setting [1], 208 nM; (input ligand: none) 237 nM.
Turning to “CAAGGACGGACACAGGAUAUCCUCACCUACACAUGAGGAUCACCCAUGUCAUAAAAGAUGGUGCAGGAGAAGGGUGCGGCGUCUA [Bibesoxe] (puzzle: Same State 2)”, the “apparent KD of MS2 coat protein” value runs as follows: under setting [2], 10.7 nM; under setting [3], 9.62 nM; under setting [4], 9.99 nM.
As for “CCAACGUACAAUUUAGAUCUACAUGAGGAUCACCCAUGUACGGAGGAUAUCAGCUCGUGUAGAGCUGAGAAGGCCGAAUUAAUU [SSNG3/2-A4] (Eterna round: R96, puzzle: Same State NG 3)”, the “apparent KD of MS2 coat protein” value (input ligand: FMN 200 uM) came to 88 nM, the “apparent KD of MS2 coat protein” value under setting [1] came out at 298 nM and the “apparent KD of MS2 coat protein” value (input ligand: none) came out at 465 nM.
With “CUGCGUAACACAGGAUAUACCUCCGCAAGGAACGUAGAAGGGUGAGUAGCAGACAUGAGGAUCACCCAUGUAAAGGCCAAGGCC [Enqudiso] (Eterna round: R96, puzzle: Same State NG 1)”, the “apparent KD of MS2 coat protein” value was 48.4 nM (input ligand: FMN 200 uM), 95.7 nM under setting [1] and 98 nM (input ligand: none).
For “GCACCUCGAUGAGGAUAUACAAGCGGAGAUUACAUGAGGAUCACCCAUGUGUGUCGCUUUCGAUGGUAGAAGGCAUACGAGGCA [Eternabot solution 14] (Eterna round: R96, puzzle: Same State NG 2)”, the “apparent KD of MS2 coat protein” value (input ligand: FMN 200 uM) came out at 16.6 nM, the “apparent KD of MS2 coat protein” value under setting [1] came out at 52.5 nM and the “apparent KD of MS2 coat protein” value (input ligand: none) is 59.2 nM.
For “GCUGCAAGGGCAGGAUAUGGGUCCAAAGCGCAAGUGCGCUUUGGUACAUGAGGAUCACCCAUGUCCCAGAAGGGCCCAAACAGC [Bientierqu] (Eterna round: R96, puzzle: Same State NG 2)” the same measures were 15.5 nM, 87.2 nM and 121 nM.
As to “UGUUGUAUUACAGGAUAUCUAUGAUUUUUUUUUAGAGAAGGGUAUUCACAUGAGGAUCACCCAUGUAUAUACGAGGAAGUUGUG [JMF's solution 65] (Eterna round: R96, puzzle: Same State NG 1)”, the “apparent KD of MS2 coat protein” value under setting [1] was determined as 39.8 nM.
As for “UGGUACAUGGGAGGAUAUGGAGUGAAGACAUGAGGAUCACCCAUGUUAUAAAUGCCGAGAGGCAACUAGAAGGCCCAUGUACCU [JL SSNG1 3.94] (Eterna round: R96, puzzle: Same State NG 2)”, the “apparent KD of MS2 coat protein” value under setting [1] came to 54.3 nM.
“AAUAAACAUGAGGAUCACCCAUGUAAUAUAAAUGGAGGAUAUGCAAUUAUUAAUUAUUAAGUAGAAGGUCGAAUAA [Lollin - Epsilon 1] (Eterna round: R96, puzzle: Same State 1)”: under setting [1], the “apparent KD of MS2 coat protein” value stood at 67.5 nM.
As for “GGUCCAGCCUGAGCUGGACAAAAGCAUGUACAUGAGGAUCACCCAUGUCAUGUACAAGCUUUUUGCUCGUCAGAAAG [Mat - hsa-mir-208a - 98] (puzzle: Sensor for hsa-mir-208a)”, the “apparent KD of MS2 coat protein” value stood at 62.7 nM under setting [2], 16.9 nM under setting [3] and 89.8 nM under setting [4].
Regarding “GGUAGGUUACUACCAAACAACAUGAGGAUCACCCAUGUGUGGAAGGAUAUGGUACCUAUUUGGUACCAGAAGGUCCAAUUAAUU [Fiskers NG3ss - 4] (Eterna round: R96, puzzle: Same State NG 3)”, the “apparent KD of MS2 coat protein” value came to 72.3 nM (input ligand: FMN 200 uM), 36.4 nM under setting [1] and 63.1 nM (input ligand: none).
For the sequence “GGUAGGUUACUACCAAACUACAUGAGGAUCACCCAUGUGUGGAAGGAUAUGGUACCUAUUUGGUACCAGAAGGUCCAAUUAAUU [Fiskers NG3ss - 5] (Eterna round: R96, puzzle: Same State NG 3)”, the “apparent KD of MS2 coat protein” value is, setting by setting: (input ligand: FMN 200 uM) 125 nM; under setting [1], 108 nM; (input ligand: none) 122 nM.
For “UCUUGGUUUUUGCUCGUUUUUUGUGUUGAACAUGAGGAUCACCCAUGUAUUGUACGGUCCAAUUUAAUAAUGGUCCA [JMF 37] (puzzle: Sensor for hsa-mir-208a)”, the “apparent KD of MS2 coat protein” value was 28.9 nM under setting [2], 15.7 nM under setting [3] and 26.7 nM under setting [4].
On to “CGUCCGGCCUGUGCUGGCCGGAAGCAUGUACAUGAGGAUCACCCAUGUUCAUGUGCUGGCUUUUUGCUCGUCUUGUG [salish99_mir208a_011] (puzzle: Sensor for hsa-mir-208a)”, for which the “apparent KD of MS2 coat protein” value is, setting by setting: under setting [2], 13.9 nM; under setting [3], 11.1 nM; under setting [4], 14 nM.
Consider “GUAGCAUACCGAGGAUAUUCAUAUUAUAAACAUGAGGAUCACCCAUGUGGUCGAUUACGACCUUGGGAGAAGGCGGAAUGCUAC [Xeonanis - 20 Mod36] (Eterna round: R96, puzzle: Same State NG 2)”, for which the “apparent KD of MS2 coat protein” value (input ligand: FMN 200 uM) was 46.4 nM, the “apparent KD of MS2 coat protein” value under setting [1] was found to be 462 nM and the “apparent KD of MS2 coat protein” value (input ligand: none) came to 725 nM.
On to “UAGGAACAUGAGGAUCACCCAUGUACCUCAUAUGGAGAAACACAGGAUAUACUUAGCGAAAGAGAGUAGAAGGGUGAAGAGAGG [Default title] (Eterna round: R96, puzzle: Same State NG 3)”, for which the “apparent KD of MS2 coat protein” value (input ligand: FMN 200 uM) was 19.4 nM, the “apparent KD of MS2 coat protein” value under setting [1] is 30.8 nM and the “apparent KD of MS2 coat protein” value (input ligand: none) stood at 32.6 nM.
Take “CAGCGCUGUCGAGAGGAUAUGCGGUGAUGGACAUGAGGAUCACCCAUGUAAGCGAUAGCAUUACGGCAGAAGGCUCUGCAGCUGC [Riaranzaes] (Eterna round: R96, puzzle: Same State 2)”: the “apparent KD of MS2 coat protein” value under setting [1] worked out at 17.2 nM.
As to “AUUAUUAAUGCAGGAUAUGAUUAACAUGAGGAUCACCCAUGUGGUGUUGUGAGUAAGGAGAGUGAUCAGAAGGGCAUUUUUUAU [JMF's solution 15] (Eterna round: R96, puzzle: Same State NG 2)”, the “apparent KD of MS2 coat protein” value by setting is: (input ligand: FMN 200 uM) 959 nM; under setting [1], 387 nM; (input ligand: none) 1190 nM.
“GUGGCCCAGGCACAGGAUAUGUUUCUCGUAACAUGAGGAUCACCCAUGUGCCUAUGAGAUUGUUUGCAGAAGGGUGCACGCCACG [JL Atiinbe mod 03] (Eterna round: R96, puzzle: Same State 2)”: the “apparent KD of MS2 coat protein” value reads like this: (input ligand: FMN 200 uM) 18.3 nM; under setting [1], 146 nM; (input ligand: none) 290 nM.
“UUAAUUAAUUAAUUAUACAUGAGGAUCACCCAUGUAAGUGAUCAGGAUAUCAGCUCGUUUAGAGCUGAGAAGGGAUACAUGUAA [SSNG3/13-A3] (Eterna round: R96, puzzle: Same State NG 3)”: the “apparent KD of MS2 coat protein” value reads like this: (input ligand: FMN 200 uM) 111 nM; under setting [1], 139 nM; (input ligand: none) 214 nM.
In the same order, the values of “GUAAAGAAUUAAGGAUAUUGAUUACAUAUGUUUAACAUGAGGAUCACCCAUGUGGGUUGCGGUAUCGAGAAGGUAAAAUAAUAG [Mat - same State NG 2 - JL mod - D86] (Eterna round: R96, puzzle: Same State NG 2)” are 190 nM, 131 nM and 174 nM.
Consider “UGUUGUAUUACAGGAUAUCUAUGAUUUAUAUUUAGAGAAGGGUAUUCACAUGAGGAUCACCCAUGUAUAUACGAGGAAGUUGUG [JMF's solution 61] (Eterna round: R96, puzzle: Same State NG 1)”, for which the “apparent KD of MS2 coat protein” value under setting [1] was 33.6 nM.
On to “GUGGUCAGACAUGAGGAUCACCCAUGUGGAAUAAAUAACGGACAGGAUAUUCAAUAUAGGAUAUAGAAGAAGGGUUGAUUGGUG (Eterna round: R96, puzzle: Same State NG 3)”, for which the “apparent KD of MS2 coat protein” value by setting is: (input ligand: FMN 200 uM) 143 nM; under setting [1], 84.5 nM; (input ligand: none) 90.9 nM.
